Measured values from paper PMC8452523 (Cell Reports, 2021).

Molecular target: trimeric Spike, full B.1.351 variant (SARS-CoV-2, lineage B.1.351 (Beta), strain)
Test: Luminex bead-based binding assay

B1: REGN10933 (antibody, V domains shown)
VH: QVQLVESGGGLVKPGGSLRLSCAASGFTFSDYYMSWIRQAPGKGLEWVSYITYSGSTIYYADSVKGRFTISRDNAKSSLYLQMNSLRAEDTAVYYCARDRGTTMVPFDYWGQGTLVTVSS
VL: DIQMTQSPSSLSASVGDRVTITCQASQDITNYLNWYQQKPGKAPKLLIYAASNLETGVPSRFSGSGSGTDFTFTISGLQPEDIATYYCQQYDNLPLTFGGGTKVEIK
fold reduced binding affinity: 15 fold
